Laboratory results published in paper PMC1713233, “Implantation Serine Proteinases heterodimerize and are critical in hatching and implantation” (BMC Developmental Biology, 2006).

Target: T1, ISP1-ISP2 enzyme complex (Mus musculus, UniProt Q924N9+Q99MS4)
T1 construct: The native ISP enzyme complex was purified from mouse uterine tissue homogenates; from tissue; host or cells: uterus of pregnant CD1 mice (4.5-6.5 dpc)
Assay: Inhibition of proteolytic activity of ISP enzyme complex, chromogenic assay with BAPNA as substrate
Assay type: biochemical
Procedure: Many general serine proteinase inhibitors were tested in order to identify suitable ISP inhibitors when BAPNA was used as a substrate. These included Benzamidine hydrochloride, 4-(Amidino-Phenyl)-Methane-Sulfonyl Fluoride (APMSF), L-1 Chloro-3- [4-tosyl-amido]-7-amino-2-heptanone. HCl (TLCK), Trypsin Soybean Inhibitor (TSI), Bis (5-amidino-2-benzimadozolyl) methane (BABIM), Gabexate mesylate, Nafamostat, and the kunitz family serpins Uterine Plasmin-Trypsin Inhibitor (UPTI) and Secretary Leukocyte proteinase inhibitor (SLPI).
Only inhibitors specific for trypsin-like serine proteinases were able to inhibit the ISPs (Fig. 4B and Additional file 2. Table 1). IC50 (concentration of an inhibitor capable of inhibiting the enzyme activity by 50%) values were obtained by plotting inhibition data, which were extrapolated into Cheng and Prusoff's equation to derive the dissociation constant (Ki).
Chromogenic assays were carried out using the p-Nitroanilide conjugated peptidic substrates. The reaction conditions used were: 4 mM BAPNA (substrate), in 25 mM Tris.Cl (pH 8.0) and 10 mM EDTA reaction buffer, in a total reaction volume of 0.5 mL. The reactions were carried out at room temperature in a glass cuvette (1 cm path length), and scanned at wavelength maxima of 405 nm using a spectrophotometer. 1 Unit of enzyme is defined as enzyme activity sufficient for the breakdown of 1 μM of substrate/ml/min. The affinity of ISP complex with various substrates was characterized by measuring enzyme activity at differing substrate concentrations and plotting enzyme activity [V] vs. substrate concentration [S]. The Km was calculated using the Michaelis Menton equation (Km = [S] at 1/2 Vmax).
IC50 values were derived by plotting enzyme activity (V) vs. inhibitor concentration [I]. Dissociation constants (Ki) values for different inhibitors were determined by using the Cheng and Prusoff equation (Ki = IC50/1 + [S]/Km).

T1 sequence (Q924N9 27-274): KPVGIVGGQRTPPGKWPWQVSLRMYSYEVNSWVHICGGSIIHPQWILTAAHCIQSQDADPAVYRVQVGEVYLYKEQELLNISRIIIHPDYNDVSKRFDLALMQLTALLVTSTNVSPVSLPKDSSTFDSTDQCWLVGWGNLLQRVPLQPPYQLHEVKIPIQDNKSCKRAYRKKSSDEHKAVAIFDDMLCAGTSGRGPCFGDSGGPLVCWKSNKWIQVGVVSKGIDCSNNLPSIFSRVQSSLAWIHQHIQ
T1 sequence (Q99MS4 18-279): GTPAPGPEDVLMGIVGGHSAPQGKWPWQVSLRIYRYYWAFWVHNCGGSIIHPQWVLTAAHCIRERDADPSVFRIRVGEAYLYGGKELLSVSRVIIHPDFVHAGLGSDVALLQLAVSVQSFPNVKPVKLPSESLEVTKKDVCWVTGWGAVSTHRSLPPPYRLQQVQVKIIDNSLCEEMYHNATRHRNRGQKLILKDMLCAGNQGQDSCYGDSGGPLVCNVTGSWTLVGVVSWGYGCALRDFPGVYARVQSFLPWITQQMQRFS

B1: TSI: Trypsin Soybean Inhibitor, obtained from Sigma Aldrich (protein, UniProt P01070 25-205, looked up)
Trypsin inhibitor A: DFVLDNEGNPLENGGTYYILSDITAFGGIRAAPTGNERCPLTVVQSRNELDKGIGTIISSPYRIRFIAEGHPLSLKFDSFAVIMLCVGIPTEWSVVEDLPEGPAVKIGENKDAMDGWFRLERVSDDEFNNYKLVFCPQQAEDDKCGDIGISIDHDDGTRRLVVSKNKPLVVQFQKLDKESL
- IC50 (4 mM BAPNA substrate, 25 mM Tris.Cl pH 8.0, room temperature, read-out: IC50%): 8 µM
- Affinity for ISP enzyme (Fig. 4B, compared to Benzamidine): relatively high affinity
- Influence on ISP activity (general trypsin inhibitors): inhibitory influence
